In the domain aggregation screens of Martell et al. (2025):

Assay: soluble fraction after stress (log2 fold change); higher = more stays soluble; pooled small domains, quantitative proteomics
Details: stress: 75 degC
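Also: 20 min heating vs room temperature control held 20 min.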

Sequence | soluble fraction (log2)
HMQDREIHIHAGREVLEKELSRLSLHLKNTNLQEYAARFNVKTAEDILAGIGAGDIRPAHVVNLIADKL | -0.0928
HMQDSSGENNPQSKLTQQQVDLLMKDLKETNVEFDKLAEKYNVSIKTIRNVNTGIAWRKNDITYPIREP | -0.407
HMQDTQAEEGETLLDALRRIHPESSTGTLRRMLTQGRVQLDGDSVHAAKTVLSAGQRVEVVAR | -0.143
HMQDTTLTSQILRVPSSVNINDLANVLKSLAGKNTVVAPYKAANTIIITGYAPNVRRVLSLANELIPRLDV | -1.18
HMQEAGLITQRIREMREKENWTQEYMAEQLGMSENGYAKIERGESNLSLKRLQQIADIFEVESAELLK | 0.00448
HMQEDKSKYLFQRGTAITVLRPAGIVRIGKERVDAVSNGSYIDRGVAVRVIEVEGTRVVVEPVPE | 0.0187
HMQEEMIRGDIKLNTVMQTVHLAVGTETERNWQPVETTAKEFELLKLLMENPGVTLKKEYLFHMLI | -0.101
HMQEESISWKEFLELDIIGDKKKRLKVYDLFHLGYGNAKTLFKRLNMVGISREMIEKELENEGY | -1.39
HMQEKIREVANRIRELRESLEVSPEEMADHLKVTIGTYIEYERGEADIPASVLFGIAHRLNVDMAVLL | -1.36
HMQEKLELIIPVSSIGKRADVAIQDLLSSYSRAKIQEWIKSGFILLESKKISPKDIFMGGERVFIDIQQDE | -1.86
HMQELVPGKVFEGTVTEMKNGQVTLGLSDGKTISARMEQGVSLAKGQPMLFEVKSNTGEQIAIRPVVL | 0.263
HMQENKVLEGKVLEKKKKKVFVDLSPFGVGVIRGVNYLEAKNELKDIEEGDNIKVRVLEIDNENGFIELAL | -0.121
HMQERQREGFVQQLRGKYSGQVVMRLFPELQGKALGEFMRKFEAQWEDHEAVLAAMEAHEIESRLKVFK | -1.57
HMQETALANFETNEGVQKVKQYVQENVPSLRGSNIVGVWTSYTPEGLTNYRTRFLTQDGQFVEVNLAYQ | -0.203
HMQETIDVAALRVGMFVHLDLGWLAHPFPLSSFRISSEDQISTIRALGLKRVRWSSQHSELG | -1.29
HMQETKDEGAQVLLNKINALVAAVQGQIITPEEAAIKLATDGDLDLDVDARVAAIEEFNKKLSEAQNN | 0.101
HMQEVILEKIQLTYLSADKLSKMAEQFSIPVKMYWVDENPMMLMVMGNESDIATFKKVLTQIDIPENKS | -0.268
HMQFHQDNYALEFIRDLQPVDGAIILSRFKQFDLVELEKAKKIKFSDEHMAWTLYDYDIKKIN | -1.95
HMQFLKPQDVLFLLKLVVLKGPASIFPAVPESLGLSKAEVHNSAKRVRGARLLPHDSWNPLRKNLLEFL | -0.488
HMQFQVHEIKGKEYYIHVVEKGNTLYAISRMYSVPIETLKEENPRLNTTELTIGDRLLIPLDEVKRKNIE | -0.833
HMQFYSGLEARLMDPNTPEVFDDPISLMAFLQQKNISRVELEDNLLLPYLKEMAGQPIPKAELLEIIRK | -0.815
HMQGDHELSQRILSYLSEQGGSSPLTDKASPEEIYRIFRVSKKKYKQALGNLYKSKSIIILADKIQLL | -3.2
HMQGEDEILKIHEALEELAQIDARLVRVVEMRYFVGLSNQEIADSLGVTTRTVERDWEKARTFLFNALHP | -1.86
HMQGISGIERSLLDALAFEPAGLDALQARTGLDTPTLQALLMGLELQGHVARLPGSLFQRLVR | -0.9
HMQGVTVPDLTRVSLEEAVATISSLGLRYEISDRRSNAAFPANYVLDQAPGANTIVKPNRKVYLTVNAA | -0.162

Sequence | soluble fraction (log2)
HMQGWREWDYSADLYINARVGGKIEPTENSPISRVYELDEPVSVVAFTSTRYFKLSSGDYIFAEYLSAQKV | -4.29
HMQGYELKMYVTPDTKYSVAVYDAKNEMVSYTMGFSAKAPFGQEGEVLETVKLEFDKLAVGNYELKYWI | 0.258
HMQHYQFEVDEASSKKRLDVFLSENLPEISRSRLKKLIDEKRVTVNEMSRPAGYKVRVKEKIEFHIPPL | -0.718
HMQIAEAESLGQRLLQQSINNIVGRDEAITEERLNRVLSQYSLTGRDELMAQIGLGNRNSSLVAKAMYDI | -0.0772
HMQIKEVDYGTFISMTEDGEIGRVEIQQQENTILFTDEDETAVYKTAMVEDDQLTQRLYDAGISFYGEE | 0.0917
HMQILVEGVEANQRLDLFLRARLTEFSRSRIQGLVKNGNVLVNGNIARQAYLVQVGDKIELDVPEPVA | -0.603
HMQIMVVDEADRMLDMGFIPDIERIFQLTPFTRQTLFFSATMAPEIERITDTFLHSPERIEVAR | -0.255
HMQISDDGFILKIINEVVAENPKSISDYISGKEAAVGFLVGQIMKKTRGKANPKLVNEMLITELAKLKN | 0.0585
HMQISDESSIAKIADEVISEFPSQVSEFRSGKEKVLQFLIGQVMKKTKGKANPQITAKILREKLS | 0.00566
HMQISDSASVKTVVAEAIAANPKAVADFMNGKDTATRYLVGQVMKITKGQAKPELVNQLVLESLAELKEK | 0.361
HMQISDSGELEKIVLQVIEENPKPAEQVRSGNEKAIGALVGGVMKATQGRADGGEVNRLLRQHLGL | 0.248
HMQISDVSLIAKVIDDVIDNNVKSVSDYLEGNLNVLRFLVGQVMKETKGKANPQKATELLQEKLESLNN | -0.896
HMQISLDTKLINLEFSVRANNVFRENQIFTLRDLTSHSKEDLMLMTNFGKTTLYEVNKKLEEHQLKLSQ | -2.43
HMQISNEEELEKIIENVIESNPEKVKAYQSGKSGLIGFFMGQVMKESGGQANPNLVNQILKGKL | 0.109
HMQIYSQEIYDAQKVLKELGLYTSDLDGLNGPGTKRALRNFQSKSGLNADGVLGPLTKSALDKGEESYITV | -0.0827
HMQKADFDYGDYVDLGLAMGRQSRQLREAVGIKLGIGYANSKRFYQRLQTFGISLAELKQAVEEAENDQQN | -1.12
HMQKEMDIVLQINGKMRSNLKVSSTANDDEIIKTAIESDAYKKFSLGLRIQKTIIVPNRLINIVLEK | -3.24
HMQKIYTIARGDTLSHIVAGTLKQQGIAYTTGELYRLVNVVAQYNDILNPNRIYTGHQLDLTPLYSED | -0.15
HMQKLLGPFEDFVKIKLDKYPDTKAAQMHDWLKEHYPDFPEVTPKTVYNFVMYVRQRHNIPIPD | -0.359
HMQKTVLAASVYERMKERIMDQYYPPGERLNIDALAIDLAVSPTPIREALARLAAERLITFEAYKGYRVSP | -3.38
HMQLEPLVTSVIPVNFAKASDISGTIKGKEVGLLSERGNITAENRTNVLIVKDIRKSVDEINAMVKRLD | 0.0272
HMQLFKFKNAMMELAKNKNITLDTAEKAIGLEAGFTELVARGVKELALSDVIKISKYFNTTMDSVLD | -1.44
HMQLPFTPREHEITQLLSRGLSNRQIAEALSLSVRTVEGHIYQASTKLGISSRSELAVLVGQFA | -1.94
HMQLSQLLQPFDINAFKGHPLYTEENVKMFNDYTNRVKEWTKGTPYEQYWVTKEGQPTMLAWDSFKK | -1.28
HMQLTQEAIENLFKITTAKKFREELEKLVVTDSEKKAFAYFTVYHPKLKELPFAILKSVENYTGISI | -0.963
